These results are taken from publication PMC8038143, “Conformation-Specific Inhibitory Anti-MMP-7 Monoclonal Antibody Sensitizes Pancreatic Ductal Adenocarcinoma Cells to Chemotherapeutic Cell Kill” (Cancers, 2021).

The term EC50 denotes the concentration at which the effect is half-maximal.

Assay [1] concerns the target T1, recombinant catalytic human MMP-7 (active enzyme) (Homo sapiens, UniProt P09237).
T1 construct: matrix metalloproteinase 7 (matrilysin), human, active form: catalytic domain without the propeptide; also called hMMP-7; matrilysin; source: recombinant
Put plainly: ELISA; 96-well plate coated with MMPs at 5 mg/mL; GSM-192 incubated at 25 °C for 1 h; detected with goat anti-Fab/anti-mouse antibody and peroxidase-conjugated anti-goat antibody; four-parametric sigmoidal fit. The note with it: both partners purified.

Assay [2] has as its target T1, recombinant catalytic human MMP-7 …. Put plainly: cell-based or functional assay.

T1 sequence (P09237 95-258): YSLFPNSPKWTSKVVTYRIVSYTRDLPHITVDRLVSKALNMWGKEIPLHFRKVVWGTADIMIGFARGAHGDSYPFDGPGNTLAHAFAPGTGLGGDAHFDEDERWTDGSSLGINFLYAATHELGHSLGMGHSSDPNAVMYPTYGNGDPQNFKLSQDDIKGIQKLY

B1: GSM-192 anti-MMP-7 monoclonal antibody (antibody, V domains shown)
VH: EVQLQQSGPELVKPGASVKIPCKASGYTFTDYNMDWMKQSHGKSLEWIGHINPNNGGTFYNQKFKDKATFIVDKSSNTAYMELRSLTSEDTAVYFCARGGGLRRGPFAYWGQGTLVTVS
VL: DIVTQSPASLAVSLGQRATISCRASESFDSYGNTFVHWYQQKPGQPPKLLIYLVSNLESGVPAGFRGRGSRTDFTLTIDPVEADDAATYYCQQNNEDPYTFGGGTKLEIK
notes: Whole mouse monoclonal antibody; source: mouse hybridoma (BALB/c B cells fused with NSO myeloma cells), supernatant, purified (protein A column)
Turning to B1, the EC50 in assay [1] worked out at 43 ± 1 nM. In addition, in assay [2], the “death of AsPC-1 PDAC cells treated with GSM-192, IC50” value is 2300 nM and the “death of CFPAC-1 PDAC cells treated with GSM-192, IC50” value was found to be 4300 nM.
